From the supplement of paper PMC10567573
± gives the standard deviation.

Assay: protein stability index of a GFP-peptide fusion (GPS, HEK-293T) (PSI 1-6); higher = more stable
Conditions: c terminus: a fixed tail appended
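Also: 24-mer peptide tiles fused after GFP, lentivirally expressed, FACS-sorted into six equal bins by GFP/DsRed ratio, decoded by Illumina sequencing, PSI is the read-weighted mean bin number.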

Sequence | protein stability index (treatment: DMSO) | protein stability index (treatment: MLN4924 1 uM, 8 h)
LRTYLARLPWAGQLTKELPLSPAF [PBXIP1] | 2.22 ± 0.64 | 2.16 ± 0.22
APEIDPSSDGSNFGWETKIKAWMD [KMT2E] | 4.21 ± 0.41 | 4.36 ± 0.25
SYLREQMLNEPLVREIVKECSNIP [GAN] | 3.21 ± 0.19 | 3.39 ± 0.45
PPPPPGLPSDGDHQVPTTAGNKAA [WASL] | 5.46 ± 0.33 | 5.43 ± 0.12
DDFRTKYQTEQSLRQLVESDINSL [KRT33B] | 4.6 ± 0.2 | 4.39 ± 0.12
IAIVSVMVILISIVIFCLETLPEL [KCNA1] | 2.39 ± 0.25 | 2.44 ± 0.16
REAKEGDCGDILRLIRELAEFEKL [SAT2] | 2.95 ± 0.3 | 3.09 ± 0.47
GKSLLLMTRNDVLTGLQLKLGPAL [SAMD13] | 2.27 ± 0.4 | 2.26 ± 0.28
LALDREPPPHLLPEKHQVPEKLIW [WDR88] | 3.31 ± 0.32 | 3.17 ± 0.3
GHPYRGASQFLASASSSTTCCEST [IRX6] | 4.24 ± 0.19 | 4.3 ± 0.22
TVPDEFTVEERQTGMWWRHLVAGG [SLC25A25] | 2.77 ± 0.19 | 3 ± 0.14
NKALSIILHLICLLEKVPCTLEQD [FEM1C] | 2.87 ± 0.25 | 3.13 ± 0.71
GDLFESTPEVAAAPKPDAAPSIDL [SNAP91] | 5.3 ± 0.29 | 5.27 ± 0.16
SQFLKHQQTHNIEKAHECTDCGKA [ZNF649] | 4.88 ± 0.26 | 4.985 ± 0.041
LSKSNKPIHTIILNPHVHLVGDDA [CAMK2D] | 3.12 ± 0.3 | 2.95 ± 0.48
DRRKKIARMGFNASSMLRKSQLGF [DCAF4] | 2.67 ± 0.34 | 2.84 ± 0.13
EQERRERREQAAAAPFPSPAPASP [TFE3] | 5.52 ± 0.18 | 5.48 ± 0.14
AEEEEEEEEEVDLACTPTDVRDVD [CCND1] | 5.53 ± 0.31 | 5.41 ± 0.34

Sequence | protein stability index (treatment: DMSO) | protein stability index (treatment: MLN4924 1 uM, 8 h)
ICEQAEYHMFQREKVEVQLPELFH [KCNAB2] | 3.17 ± 0.24 | 3.06 ± 0.29
LLVINESIESIKWMIEEKATITSR [LURAP1L] | 2.38 ± 0.24 | 2.51 ± 0.3
MASLLEDLSHIEGLSQAPQPLADE [SERTAD1] | 4.82 ± 0.092 | 4.72 ± 0.1
EAAEGRNKNEVFYQCPDQMARNPA [FBXO3] | 5 ± 0.32 | 4.67 ± 0.52
AALTRMRAESTANAGQSDNRSLAE [ANKRD17] | 4.79 ± 0.14 | 4.81 ± 0.15
VYEDETKVVHAVDGTAENGIHPLS [PALM] | 4.88 ± 0.24 | 5.11 ± 0.11
KRLYDKAAKMYHQLKKCETRKLSP [SMG5] | 2.28 ± 0.18 | 2.38 ± 0.39
VGLIRNLALCPANHAPLREQGAIP [CTNNB1] | 3.21 ± 0.24 | 3.32 ± 0.32
SNEFKESALTLACYKGHLEMVRFL [ANKRD17] | 2.21 ± 0.18 | 2.4 ± 0.34
HQEGAKMAVRLAGGLQKMVALLNK [CTNNB1] | 2.4 ± 0.11 | 2.42 ± 0.27
RILGLDQKKDCVPLMKPHRPWADT [HESX1] | 2.34 ± 0.17 | 2.36 ± 0.24
NSVCSKFRKEIKSKSADNQEYFER [RHOBTB1] | 4.26 ± 0.19 | 4.45 ± 0.32
CRKAKEIRKERKRLKLMQQNPAGE [ATE1] | 4 ± 0.25 | 4.37 ± 0.2
VTTYLHKDYNNLWIIKKHNTNSDP [POMT2] | 2.31 ± 0.48 | 2.5 ± 0.23
AAPAGSLSRKKRLELDDNLDTERP [TRIB3] | 5.25 ± 0.33 | 5.27 ± 0.14
RYFIADLPHLQDSFVDKLLDLMPR [INTS4] | 2.16 ± 0.29 | 2.27 ± 0.29
YTGYCWCVTPNGRPISGTAVAHKT [SMOC2] | 2.73 ± 0.55 | 2.51 ± 0.13
GTLVQLLGSDDINVVTCAAGILSN [CTNNB1] | 2.32 ± 0.52 | 2.28 ± 0.12
